{"source": "patent US7223596B2", "about": "“Malignant endothelial cell line and uses thereof in models for angiogenesis” (Wisconsin Alumni Research Foundation, priority 2003, dated 2007)", "molecules": {"B1": {"name": "Interleukin-12 (protein, UniProt P43431 23-215; P43432 23-335, looked up)", "Interleukin-12 subunit alpha": "RVIPVSGPARCLSQSRNLLKTTDDMVKTAREKLKHYSCTAEDIDHEDITRDQTSTLKTCLPLELHKNESCLATRETSSTTRGSCLPPQKTSLMMTLCLGSIYEDLKMYQTEFQAINAALQNHNHQQIILDKGMLVAIDELMQSLNHNGETLRQKPPVGEADPYRVKMKLCILLHAFSTRVVTINRVMGYLSSA", "Interleukin-12 subunit beta": "MWELEKDVYVVEVDWTPDAPGETVNLTCDTPEEDDITWTSDQRHGVIGSGKTLTITVKEFLDAGQYTCHKGGETLSHSHLLLHKKENGIWSTEILKNFKNKTFLKCEAPNYSGRFTCSWLVQRNMDLKFNIKSSSSSPDSRAVTCGMASLSAEKVTLDQRDYEKYSVSCQEDVTCPTAEETLPIELALEARQQNKYENYSTSFFIRDIIKPDPPKNLQMKPLKNSQVEVSWEYPDSWSTPHSYFSLKFFVRIQRKKEKMKETEEGCNQKGAFLVEKTSTEVQCKGGNVCVQAQDRYYNSSCSKWACVPCRVRS"}}, "key": {"[1]": {"tested_on": "angiogenesis induced by SB-HSA cells", "test": "corneal pocket angiogenesis assay with sponges containing SB-HSA cells", "assay_type": "in vivo", "conditions": "BALB/c mice, sponges with 70,000 SB-HSA cells in cornea; continuous subcutaneous infusion by osmotic pump from day 2; examined one week after treatment; vs PBS-treated control", "description": "IL-12 is a cytokine with both immunostimulatory and antiangiogenic effects. In these experiments, sponges containing 70,000 SB-HSA cells were placed into the corneas of BALB/c mice. Two days after placement of the sponges, the mice were randomized to receive either mrIL-12 or phosphate buffered saline. Each was delivered as a continuous subcutaneous infusion by subcutaneously implanted osmotic pumps. One week after treatment, mice were injected with FITC-dextran, euthanized and the corneas examined.\nPolyvinyl sponges (Rippey, Eldorado Hills, Calif.) preirradiated with 2000 Gy of gamma irradiation (cesium source) were cut into 4×4×2 mm pieces, and 70,000 SB-HSA cells were introduced into the sponges. BALB/c mice were anesthetized with AVERTIN and a small surgical micropocket was created in the center of the avascular cornea. Sponges were then inserted into the micropocket. Eyes were examined for neovascularization daily using an ophthalmic microscope (Carl Zeiss Inc, Thornwood, N.Y.). […] Phase contrast and fluorescence microscopy were used to visualize the general layout of the cornea and the presence of perfused blood vessels, respectively (Muthukkaruppan, V. and Auerbach, R. Science 1979 205:1416–1418)."}, "SB-HSA tumors": {"tested_on": "SB-HSA tumors", "test": "treatment of SB-HSA tumor-bearing mice (subcutaneous canine hemangiosarcoma xenograft)", "assay_type": "in vivo", "conditions": "NOD-SCID mice injected s.c. with SB-HSA cells, vs PBS control", "description": "For example, IL-12 was also shown, to suppress the growth of canine hemangiosarcoma in vivo in this model. IL-12 is a cytokine with pleotropic effects including suppression of angiogenesis due to in vivo inhibition of endothelial cell growth. This activity is mediated by downstream chemokines such as IP-10 and Mig, which are induced by interferon-γ in response to IL-12. […] Control mice that were injected subcutaneously with SB-HSA cells and received phosphate buffered saline developed tumors at the site of cell inoculation by the second week that progressively enlarged over a 4-week observation period.\nCanine hemangiosarcoma xenografts were established in NOD-SCID mice by injection of 5×10^6 SB-HSA cells suspended in 200 μl PBS over the dorsum using a 26 gauge needle and tuberculin syringe. Mice were examined every other day until tumors were detected and measured with calipers. Animals were sacrificed when tumors reached a size of 1 cm^3.\nNOD-SCID mice were injected subcutaneously over the dorsum with SB-HSA cells (5×10^6 cells/200 μl). […] Pumps were designed to deliver 6 μl/day (1 μg IL-12/day for four weeks. The mice were examined every other day for tumor development. The two largest perpendicular diameters were measured with calipers."}}, "data": [{"molecule": "B1", "values": [{"measurement": "corneal neovascularity", "setting": "[1]", "result": "significantly less corneal neovascularity"}, {"measurement": "growth of tumors", "setting": "SB-HSA tumors; continuous subcutaneous infusion 1 μg IL-12/day for four weeks", "result": "initially suppressed for two weeks followed by slower growth"}, {"measurement": "tumor size at end of observation period", "setting": "SB-HSA tumors; continuous subcutaneous infusion 1 μg IL-12/day, end of 4-week observation period", "result": "significantly smaller size"}]}]}
